Reference: PMC4505066, “Insights into the Recruitment of Class IIa Histone Deacetylases (HDACs) to the SMRT/NCoR Transcriptional Repression Complex” (The Journal of Biological Chemistry, 2015)

B1: wild type GSI motif peptide (…), SMRT amino acids 1450-1469 with an amino-terminal cysteine [modified: BODIPY-TMR coupled to the N-terminal cysteine; BODIPY-TMR coupled to the N-terminal cysteine] [not stated] (parent)
chain 1: CPRPLKEGSITQGTPLKYDTG
chain 2: TKPRFTTGLVYDTLMLKHQCTCGSSSSHPEHAGRIQSIWSRLQETGLRGKCECIRGRKATLEELQTVHSEAHTLLYGTNPLNRQKLDSKKLLGSLASVFVRLPCGGVGVDSDTIWNEVHSAGAARLAVGCVVELVFKVATGELKNGFAVVRPPGHHAEESTPMGFCYFNSVAVAAKLLQQRLSVSKILIVDWDVHHGNGTQQAFYSDPSVLYMSLHRYDDGNFFPGSGAPDEVGTGPGVGFNVNMAFTGGLDPPMGDAEYLAAFRTVVMPIASEFAPDVVLVSSGFDAVEGHPTPLGGYNLSARCFGYLTKQLMGLAGGRIVLALEGGHDLTAICDASEACVSALLGNELDPLPEKVLQQRPNANAVRSMEKVMEIHSKYWRCLQRTTSTAGRSLIEAQTCENEEAETVT

Variants of: B1
Experiment: fluorescence anisotropy
Conditions: with HDAC4 catalytic domain

Kd [µM] | Variant
> 1000 | chain 1 CPRPLKEGSITQGSPLKYDTG [chain 1 T14S]
> 1000 | chain 1 CPRPLKEGSITQATPLKYDTG [chain 1 G13A]
> 1000 | chain 1 CPRPLKEGSATQGTPLKYDTG [chain 1 I10A]
> 1000 | chain 1 CPRPLKEGSDTQGTPLKYDTG [chain 1 I10D]
> 1000 | chain 1 CPRPLKEGTITQGTPLKYDTG [chain 1 S9T]
> 1000 | chain 1 CPRPLKEGAITQGTPLKYDTG [chain 1 S9A]
> 1000 | chain 1 CPRPLKEASITQGTPLKYDTG [chain 1 G8A]
